The series is described as follows: label from the status in PepcDB records.
Regarding “MCTEFWNSFSNLFTGGRSTNRKIILVLLIMVLSSGVCSADNYVGGIPLTSAHSGTVSGGVYCDSYYGMGDQEAKASNTIEKTFTVPDNANVEWAMLLTNVYCGHMQNNYQGKAKVDFNGKNLGTETLNVPYTYSYNGGNGHVQVNDHVNRVTSDYMMYYDVTGLVKAGKNTAVVKTDPLDSSFDGRIRLVTLVVAYNDGSKKTIWYQVNRGHDADSYYSDDEMNENYIGSTAFQAALPEGSSLTDSKLTLVYQASSDGAYAFNGNALSSGTPQGTFSGSNTWDVKDSLKSSGTNTLTYDRTASFYKSVLGILTAEYTTSSSGDSTDDTPADNTTDNGSAGDTTDDISSDNTTNDTSSDNTTSDVPAGNTTNDTPADNTTDAKFSADLGVQAIKVSHNSAAKAWKNLVNTVNVTVINNGPEKAGSFALELYSEGSLLESKPINGLANGATEAVEFVWKPEDAKNYTLRAVVVPGSTINDANATNNELSKTQEVMHNGYIGDKPLETYLHGTVKGNIIYDYGNSSYVKVSSGDVYTAGHSLSLPEGAIVKYARLYNFWTWSATGSSGVIPSMSLDFAGSSLTPEAEYADQKGWGQYDYPTGTWAYNVTGLVSGSGNYITTVKNTNSDAENSFCIDGIALLVVYEDASGKETQYWINEGCDAVSTMSSSGGLTPDEATVKIAFAGDSIDLGNVDNARLWTTVQSGGHEGIALKFNEMSISGVYDSTPSSNLDIDEARDVTSYLLSQNNEAQIIAPSVTDNSGDYMIPSSAILAVSYKSETTDDTNITDDTNVTDDTNVTDGTNVTDDTNVTDGTNVTNDTNVTNDTNVTNDTNVTNDTNVTNDTNVTNDTNVTDDTNVTDGTNVTDGTNVTIDTNVTIDTNVTIDTNVTDNTNVTDDTNMKDDTNVTLKVNIIPVISLTVSPDSLDFGTVSPGTPSESLPLALKNNGGISIKVTAEVHDQENGPFATGLLLDQNIWSNYSKVLAAESAETSQAQLDLPLNYSSTGQFQGTLSLWAEAA”, the protein production result was “failed”.

For the sequence “MFLEIAKVYLQGLGLASITVILVGIIWVFWRAKKNIDKTARERQSVLYDVLLIALMTAPILAFAFVAIILMIKA”, the protein production result is listed as “failed”. The entry for “MILSNYFKFLSHQLKGWPQQNYYLFYFSLGCQVMTLVSAPITALSILTFIGTTLGVLCVLAINAAKSVNGLLGVISAACFIVVGFSAKNYLSIGEQLAYVVTLDIPVLLSANWNVNMVSKIRKFTGKTWIVAIVATLVVYAISGYLIGALTDDPRPWVDAISFAICLTAGVICFLRYNNQYFWWIASGLAQMVLWFISFRQGSATLAMFINSSVYLMNDVLAFTVSPWYNKHERARLMAEEQAASDAASADASDNQAFGLNH” is “failed”. Then “MERFNMKLTRKKFTGNLLRSLAVLLLFSLVVCTAAGEELYFEPQEAVFSDTGSVASLSLYLDQAPSGLAGYKLNLSISDPSVAQITGVEFPSWSGINNSSSLPADLVQIKAVDLEEKINAGDLDVFLGTVTVESLASGEANLTVSVDRLDDDSENTISVTVREAKLTSGTTSENPVVSILPAESTLSSGASQVFEIRADKFTEGISGYDFNLTLENPAVGKFTNVEYPSWVGLSENSSMPNTSIKVKAVDTNDVVKAGDENVLLANVTFVAETPGESEISLTFNRLDDDSGSNINAVAEASSVKVQGSSTLPVAKFTATPTSGDSPLTVQFTDESTGSPTAWTWDFGDGATATEQSPSHTYTSAGNYTVNLTVTNDGGSDSEVKTDYITVSESSTPTEPEPVAAFTADVTNGTVPLTVNFTDQSTEAPTSWAWDFDNDGTVDSTEQNPSYTYTSAGTYTVNLTVANAEGSDSEVKIDYITVSESSTPTEPEPVAAFIADVTNGTVPLTVNFTDQSTGSPTSWLWDFGDNTSATEQNPSHTYNSAGNYTVNLTVISESGNSSEVKADYITVSESSTPTEPEPVAAFTADVTNGTVPLTVNFTDQSTGMPTSWAWDFDNDGNMDSTEQNPSYTYTAEGNYTVNLTVSSEVGSDSEVKVEYITVTDSSTTPEARPDLIVSSIIPPSSITANTSCNIGATISNTGESDAGTFNATLSVNGAVVDTHAVSGIVSGSSATVNFSWKPVAAGYYSVKVSADAGNVIAESDETNNELADCIKVEEASSGSQSQNGSSSVSLNVTIVPVVCFEVSPSALKFGELSAGQTSEPQLLTLKNCGVSGIKVTAEVSDSSAEDNLFGLGLLLDSQIWSDYCNVIGSNSQENATAALHVPSDYTGTGNKKGTITFWAEVAE”, with “failed”. The entry for “MLNDKMYHGKGLRKGDLRLYHELYNLQVMKWPVNPLDVIIEKIKRREGNGVIADIGCGEARIAREFENVISLDLHPVGKDVIPCDMRRRIPLDDGSVDVAVCCLSMMVEDIAVPTKEINRILRNGGHWYIAEVRSRIPSVGLLERKFESLGFDVEHVDVSNAQFVLFVLQK” is “failed”.

The record behind these values is a protein production outcome set (Wang et al. 2014).
